Reference: patent publication US8277440B2, “Implantable device for controlled, extended delivery of parathyroid hormone” (MicroCHIPS, Inc., priority 2002, dated 2012)

Key:
[1] = Solubility of PTH as a function of pH; assay type: physicochemical
Source text: While not being bound by any theory, it is believed that this phenomena was due to the salts (e.g., MW ˜60) in the PTH solution diffusing into the physiological solution at a rate that exceeded the rate of diffusion of the PTH (e.g., MW ˜4000) due, for example, to the molecular weight (MW) dependence of diffusion rate, to such an extent that the pH of the PTH solution increased to a point exceeding that required to keep the PTH in solution. (For example, at pH 3, the PTH has a solubility of about 100 μg/ml and at pH 7, the PTH has a solubility of about 20 μg/ml.)

skeletal homeostasis = conditions: cited from earlier work

**Q.** With parathyroid hormone [PTH] as the substance, how does the solubility ([1]; pH 3) read?
**A.** about 100 μg/ml

**Q.** What about the solubility ([1]; pH 7) of the same substance?
**A.** about 20 μg/ml

**Q.** What about the bone volume (skeletal homeostasis; daily dose given as one single injection) of the same substance?
**A.** dose dependent increase

**Q.** What about the “effect on serum calcium” value (skeletal homeostasis; in vivo) of the same substance?
**A.** dose dependent increase

**Q.** What about the “effect on serum calcium levels” value (skeletal homeostasis; in vivo) of the same substance?
**A.** practically no effect

**Q.** What about the result on bone (skeletal homeostasis; same daily dose by continuous infusion with subcutaneous mini-osmotic pump) of the same substance?
**A.** bone loss
